Experimental findings from patent US20090257987A1, “Method of generating dopamine-secreting cells” (Ramot At Tel Aviv University Ltd., priority 2008, published 2009) are described below.

Holding throughout (type): cell-based
Assay [1] has as its system human MSCs. The assay can be described thus: Real-time quantitative PCR of Nurr1 and GAD67. Conditions: real-time PCR versus GAPDH. The procedure:
(§1) Induction of differentiation: The differentiation protocol was composed of 2 steps. In step 1, cells were transferred to serum-free medium (DMEM) supplemented with 2 mM glutamine, 100 μg/ml streptomycin, 100 units/ml penicillin, 12.5 units/ml nystatin (Biological Industries), N2 supplement (Invitrogen, New Haven, Conn.) and 20 ng/ml fibroblast growth factor 2 and epidermal growth factor (both from R&D Systems, Minneapolis, Minn.) for 48-72 hours. […]
RNA isolation and cDNA synthesis: Total RNA was isolated by a commercial TriReagent (Sigma). The amount and quality of RNA was determined with the ND-1000 spectrophotometer (NanoDrop, Wilmington, Del.). […]
Real-time quantitative reverse transcription polymerase chain reaction (PCR): Real-time quantitative PCR of the desired genes was performed in an ABI Prism 7700 sequence detection system (Applied Biosystems, Foster City, Calif.) using Syber Green PCR Master Mix (Applied Biosystems) and the following primers: glyceraldehyde-3-phosphate dehydrogenase (GAPDH) sense CGACAGTCAGCCGCATCTT (SEQ ID NO: 1), GAPDH antisense […] […] For each gene, the specificity of the PCR product was assessed by verifying a single peak in the melting curve analysis. […] Quantitative calculations of the gene of interest versus GAPDH were done according to the ΔΔCT method, as instructed in the user bulletin of the ABI Prism 7700 sequence detection system (updated 10/2001).

Assay [2] deals with human MSCs. The assay can be described thus: HPLC analysis of dopamine secretion. The procedure:
Induction of differentiation: The differentiation protocol was composed of 2 steps. In step 1, cells were transferred to serum-free medium (DMEM) supplemented with 2 mM glutamine, 100 μg/ml streptomycin, 100 units/ml penicillin, 12.5 units/ml nystatin (Biological Industries), N2 supplement (Invitrogen, New Haven, Conn.) and 20 ng/ml fibroblast growth factor 2 and epidermal growth factor (both from R&D Systems, Minneapolis, Minn.) for 48-72 hours. In step 2, the medium was changed to Basic induction medium containing Neurobasal, B27 (both from Invitrogen), in addition to 1 mM dibutyryl cyclic AMP (dbcAMP), 3-isobutyl-1-methyl-xanthine (IBMX), and 200 μM ascorbic acid (all from Sigma, St Louis, Mo.). The following factors were added to the Basic induction medium in different combinations: brain-derived neurotrophic factor (BDNF; 50 ng/ml), glial-derived neurotrophic factor (GDNF;10 ng/ml), neurturin (100 ng/ml), neurotrophin 3 (NT3; 50 ng/ml), and fibroblast growth factor 8 (FGF8; 100 ng/ml (all from Cytolab, Rehovot, Israel); transforming growth factor β3 (TGFβ3; 2 ng/ml), sonic hedgehog (Shh; 500 ng/ml, both from R&D); estrogen (0.1 μM, Sigma); and all-trans-retinoic acid (RA; 0.1 μM, Sigma). High performance liquid chromotography (HPLC): Reverse-phase HPLC coupled with an electrochemical detector (ECD) was used to measure dopamine levels. […]

For assay [3], the system named is human MSCs. Put plainly: Intracellular FACS analysis of TH expression. Conditions: none of the untreated cells. The procedure: as §1, with “hours. In step 2, the medium was changed to Basic induction medium containing Neurobasal, B27 (both from Invitrogen), in addition to 1 mM dibutyryl cyclic AMP (dbcAMP), 3-isobutyl-1-methyl-xanthine (IBMX), and 200 μM ascorbic acid (all from Sigma, St Louis, Mo.).” for “hours.”
Intracellular fluorescence-activated cell sorter (FACS) analysis: Cells were harvested from the tissue culture flasks, centrifuged, and resuspended in phosphate-buffered saline (PBS). […] The results were analyzed with CellQuest software. […]
Background: A flow cytometer gives signals particle by particle.

B1: brain-derived neurotrophic factor (protein, UniProt P23560 19-247, looked up)
Neurotrophic factor BDNF …: APMKEANIRGQGGLAYPGVRTHGTLESVNGPKAGSRGLTSLADTFEHVIEELLDEDQKVRPNEENNKDADLYTSRVMLSSQVPLEPPLLFLLEEYKNYLDAANMSMRVRRHSDPARRGELSVCDSISEWVTAADKKTAVDMSGGTVTVLEKVPVSKGQLKQYFYETKCNPMGYTKEGCRGIDKRHWNSQCRTTQSYVRALTMDSKKRIGWRFIRIDTSCVCTLTIKRGR
notes: brain-derived neurotrophic factor (50 ng/ml) added to the Basic induction medium
For B1, the GAD67 expression entry in the assay on human MSCs [1] is given as “down regulation”. Moreover, in the assay with human MSCs [1] (compared to untreated MSCs), the Nurr1 expression entry is recorded as “significant upregulation”. Further, the “dopamine secreted to the depolarization buffer (mean)” value in the assay with human MSCs [2] (56 mM KCL in HBSS for 30 minutes) is reported as 1127.86 pg/ml of dopamine per 10^6 cells. Further, the “dopamine secreted to the conditioned media (mean)” value with human MSCs [2] (differentiation medium) is 673.69 pg/ml of dopamine per 10^6 cells. Besides, the “induced cells expressing the TH protein at a detectable level” value in the assay with human MSCs [3] was “More than 30%”.
